Experimental data taken from patent US20240084039A1.

These binders were tested against pre-existing anti-drug antibodies (ADA) present in human sera (assay: ELISA pre-existing ADA binding assay, confirmatory setup, test molecule coated, 20 human sera).

Row | % positives of total tested serum samples | No of positive serum samples above 30% CCP (serum samples) | Binder
1 | 40% | 8 | PRO2926 (scFv) scFv: DIQMTQSPASLSASVGDRVTITCQASQSIGTYLAWYQQKPGKPPKLLIYRAFILASGVPSRFSGSGSGTDFTLTISSLQPEDFATYYCQSNFYSDSTTIGPNAFGTGTKVTVLGGGGGSGGGGSGGGGSGGGGSEVQLVESGGGSVQPGGSLRLSCAASGFSFNSDYWIYWVRQAPGKGLEWIASIYGGSSGNTQYASWAQGRFTISRDNSKNTVYLQMNSLRAEDTATYFCARGYVDYGGATDLWGQGTQVTVSS
2 | 10% | 2 | PRO2922 (scFv) scFv: DIQMTQSPSSLSASVGDRVTITCQASESIYSSLAWYQQKPGKAPKLLIYLASTLASGVPSRFSGSGSGTDFTLTISSLQPEDFATYYCQSTDYTTSTHRNSFGTGTKVTVLGGGGGSGGGGSGGGGSGGGGSEVQLVESGGGRVQPGGSLRLSCAASGFSFSTTYYMCWVRQAPGKGLEWIGCTNTASSVRTYYATWAKGRFTISRDNSKNTVYLQMNSLRAEDTAVYYCARDMGFADYALNLWGQGTLVTVSS
3 | 25% | 5 | PRO2925 (scFv) scFv: DIQMTQSPSSLSASVGDRVTITCQASESIYSSLAWYQQKPGKAPKLLIYLASTLASGVPSRFSGSGSGTDFTLTISSLQPEDFATYYCQSTDYTTSTHRNSFGTGTKVTVLGGGGGSGGGGSGGGGSGGGGSEVQLVESGGGSVQPGGSLRLSCAASGFSFSTTYYMCWVRQAPGKGLEWIGCTNTASSVRTYYATWAKGRFTISRDNSKNTVYLQMNSLRAEDTATYYCARDMGFADYALNLWGQGTQVTVSS
4 | 75% | 15 | PRO2924 (scFv) scFv: DIQMTQSPSSLSASVGDRVTITCQASESIYSSLAWYQQKPGKAPKLLIYLASTLASGVPSRFSGSGSGTDFTLTISSLQPEDFATYYCQSTDYTTSTHRNSFGTGTKVTVLGGGGGSGGGGSGGGGSGGGGSEVQLVESGGGLVQPGGSLRLSCAASGFSFSTTYYMCWVRQAPGKGLEWIGCTNTASSVRTYYATWAKGRFTISRDNSKNTVYLQMNSLRAEDTAVYYCARDMGFADYALNLWGQGTQVTVSS

More lines, now with the values behind:

Row | Binder | % positives of total tested serum samples | No of positive serum samples above 30% CCP (serum samples)
5 | PRO2907 (scFv) scFv: DIQMTQSPASLSASVGDRVTITCQASQSIGTYLAWYQQKPGKPPKLLIYRAFILASGVPSRFSGSGSGTDFTLTISSLQPEDFATYYCQSNFYSDSTTIGPNAFGTGTKVTVLGGGGGSGGGGSGGGGSGGGGSEVQLVESGGGRVQPGGSLRLSCAASGFSFNSDYWIYWVRQAPGKGLEWIASIYGGSSGNTQYASWAQGRFTISRDNSKNTVYLQMNSLRAEDTAVYFCARGYVDYGGATDLWGQGTLVTVSS | 15% | 3
6 | PRO2903 (scFv) scFv: DIQMTQSPASLSASVGDRVTITCQASQSIGTYLAWYQQKPGKPPKLLIYRAFILASGVPSRFSGSGSGTDFTLTISSLQPEDFATYYCQSNFYSDSTTIGPNAFGTGTKVTVLGGGGGSGGGGSGGGGSGGGGSEVQLVESGGGRVQPGGSLRLSCAASGFSFNSDYWIYWVRQAPGKGLEWIASIYGGSSGNTQYASWAQGRFTISRDNSKNTVYLQMNSLRAEDTATYFCARGYVDYGGATDLWGQGTQVTVSS | 30% | 6
7 | PRO2909 (scFv) scFv: DIQMTQSPASLSASVGDRVTITCQASQSIGTYLAWYQQKPGKPPKLLIYRAFILASGVPSRFSGSGSGTDFTLTISSLQPEDFATYYCQSNFYSDSTTIGPNAFGTGTKVTVLGGGGGSGGGGSGGGGSGGGGSEVQLVESGGGLVQPGGSLRLSCAASGFSFNSDYWIYWVRQAPGKGLEWIASIYGGSSGNTQYASWAQGRFTISRDNSKNTVYLQMNSLRAEDTAVYFCARGYVDYGGATDLWGQGTQVTVSS | 50% | 10
8 | PRO2905 (scFv) scFv: DIQMTQSPASLSASVGDRVTITCQASQSIGTYLAWYQQKPGKPPKLLIYRAFILASGVPSRFSGSGSGTDFTLTISSLQPEDFATYYCQSNFYSDSTTIGPNAFGTGTKVTVLGGGGGSGGGGSGGGGSGGGGSEVQLVESGGGRVQPGGSLRLSCAASGFSFNSDYWIYWVRQAPGKGLEWIASIYGGSSGNTQYASWAQGRFTISRDNSKNTVYLQMNSLRAEDTAVYFCARGYVDYGGATDLWGQGTQVTVSS | 20% | 7
9 | PRO2906 (scFv) scFv: DIQMTQSPASLSASVGDRVTITCQASQSIGTYLAWYQQKPGKPPKLLIYRAFILASGVPSRFSGSGSGTDFTLTISSLQPEDFATYYCQSNFYSDSTTIGPNAFGTGTKVTVLGGGGGSGGGGSGGGGSGGGGSEVQLVESGGGLVQPGGSLRLSCAASGFSFNSDYWIYWVRQAPGKGLEWIASIYGGSSGNTQYASWAQGRFTISRDNSKNTVYLQMNSLRAEDTATYFCARGYVDYGGATDLWGQGTQVTVSS | 95% | 19
10 | PRO2921 (scFv) scFv: DIQMTQSPSSLSASVGDRVTITCQASESIYSSLAWYQQKPGKAPKLLIYLASTLASGVPSRFSGSGSGTDFTLTISSLQPEDFATYYCQSTDYTTSTHRNSFGTGTKVTVLGGGGGSGGGGSGGGGSGGGGSEVQLVESGGGLVQPGGSLRLSCAASGFSFSTTYYMCWVRQAPGKGLEWIGCTNTASSVRTYYATWAKGRFTISRDNSKNTVYLQMNSLRAEDTATYYCARDMGFADYALNLWGQGTQVTVSS | 55% | 11
11 | PRO2919 (scFv) scFv: DIQMTQSPSSLSASVGDRVTITCQASESIYSSLAWYQQKPGKAPKLLIYLASTLASGVPSRFSGSGSGTDFTLTISSLQPEDFATYYCQSTDYTTSTHRNSFGTGTKVTVLGGGGGSGGGGSGGGGSGGGGSEVQLVESGGGRVQPGGSLRLSCAASGFSFSTTYYMCWVRQAPGKGLEWIGCTNTASSVRTYYATWAKGRFTISRDNSKNTVYLQMNSLRAEDTATYYCARDMGFADYALNLWGQGTLVTVSS | 5% | 1
12 | PRO2920 (scFv) scFv: DIQMTQSPSSLSASVGDRVTITCQASESIYSSLAWYQQKPGKAPKLLIYLASTLASGVPSRFSGSGSGTDFTLTISSLQPEDFATYYCQSTDYTTSTHRNSFGTGTKVTVLGGGGGSGGGGSGGGGSGGGGSEVQLVESGGGRVQPGGSLRLSCAASGFSFSTTYYMCWVRQAPGKGLEWIGCTNTASSVRTYYATWAKGRFTISRDNSKNTVYLQMNSLRAEDTAVYYCARDMGFADYALNLWGQGTQVTVSS | 10% | 2
13 | PRO2918 (scFv) scFv: DIQMTQSPSSLSASVGDRVTITCQASESIYSSLAWYQQKPGKAPKLLIYLASTLASGVPSRFSGSGSGTDFTLTISSLQPEDFATYYCQSTDYTTSTHRNSFGTGTKVTVLGGGGGSGGGGSGGGGSGGGGSEVQLVESGGGRVQPGGSLRLSCAASGFSFSTTYYMCWVRQAPGKGLEWIGCTNTASSVRTYYATWAKGRFTISRDNSKNTVYLQMNSLRAEDTATYYCARDMGFADYALNLWGQGTQVTVSS | 25% | 5
